Test results: article PMC5358723 (Genes & Development, 2017)

T1: full-length ABRA1, bacterially expressed (UniProt Q6UWZ7 1-409)
T1 sequence (looked up): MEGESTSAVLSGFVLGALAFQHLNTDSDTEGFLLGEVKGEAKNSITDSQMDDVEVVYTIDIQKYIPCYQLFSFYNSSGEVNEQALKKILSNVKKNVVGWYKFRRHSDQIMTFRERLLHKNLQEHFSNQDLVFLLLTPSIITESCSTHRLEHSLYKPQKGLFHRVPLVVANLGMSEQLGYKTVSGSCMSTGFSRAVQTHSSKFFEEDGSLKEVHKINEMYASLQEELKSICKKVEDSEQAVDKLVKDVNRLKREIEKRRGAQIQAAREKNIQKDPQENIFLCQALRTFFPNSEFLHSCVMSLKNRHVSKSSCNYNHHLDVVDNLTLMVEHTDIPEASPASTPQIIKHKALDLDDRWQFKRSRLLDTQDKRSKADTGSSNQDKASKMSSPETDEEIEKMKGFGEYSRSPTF

B1: ZMYM3 CT (amino acids 1000-1370), bacterially expressed (domain or fragment, human, UniProt Q14202 1000-1370, looked up)
chain: FPKNPLDINPSVDFLFDCGLVGPEDVSTEQDLPRTMRKGQKRLVLSESCSRDSMSSQPSCTGLNYSYGVNAWKCWVQSKYANGETSKGDELRFGPKPMRIKEDILACSAAELNYGLAQFVREITRPNGERYEPDSIYYLCLGIQQYLLENNRMVNIFTDLYYLTFVQELNKSLSTWQPTLLPNNTVFSRVEEEHLWECKQLGVYSPFVLLNTLMFFNTKFFGLQTAEEHMQLSFTNVVRQSRKCTTPRGTTKVVSIRYYAPVRQRKGRDTGPGKRKREDEAPILEQRENRMNPLRCPVKFYEFYLSKCPESLRTRNDVFYLQPERSCIAESPLWYSVIPMDRSMLESMLNRILAVREIYEELGRPGEEDLD

Key:
[1] = target: B1; assay: pull-down
[2] = target: T1, full-length ABRA1, bacterially expressed; assay: pull-down

Row | Binder | binding result [1] | binding result [2]
1 | RAP80-AIR (amino acids 227-346), bacterially expressed (domain or fragment, UniProt Q96RL1 227-346, looked up) HTQCGKPQESTGRGSAFLKAVQGSGDTSRHCLPTLADAKGLQDTGGTVNYFWGIPFCPDGVDPNQYTKVILCQLEVYQKSLKMAQRQLLNKKGFGEPVLPRPPSLIQNECGQGEQASEKN | binds | –
2 | B1 | – | binds
